Reference: the Human Domainome abundance scans (Beltran et al. 2025)
± gives the uncertainty stated by the source.

B1: Retinoic acid receptor beta, residues 85 to 161; numbered along this chain, P10826 (parent)
chain: YKPCFVCQDKSSGYHYGVSACEGCKGFFRRSIQKNMIYTCHRDKNCVINKVTRNRCQYCRLQKCFEVGMSKESVRND

Variants of: B1
Experiment: abundance fitness (aPCA) (normalised: wild type 0, dead -1); higher = more abundant; growth selection in yeast, the domain comes from the species named
Details: Homo sapiens

Point of comparison: YKPCFVCKDKSSGYHYGVSACEGCKGFFRRSIQKNMIYTCHRDKNCVINKVTRNRCQYCRLQKCFEVGMSKESVRND [Q8K], abundance fitness 0 ± 0.053. Against it:
- YKPCFVCIDKSSGYHYGVSACEGCKGFFRRSIQKNMIYTCHRDKNCVINKVTRNRCQYCRLQKCFEVGMSKESVRND [Q8I] — lower, -1.01 ± 0.34
- YKPCFVCNDKSSGYHYGVSACEGCKGFFRRSIQKNMIYTCHRDKNCVINKVTRNRCQYCRLQKCFEVGMSKESVRND [Q8N] — within error, -0.035 ± 0.079
- YKPCFVCTDKSSGYHYGVSACEGCKGFFRRSIQKNMIYTCHRDKNCVINKVTRNRCQYCRLQKCFEVGMSKESVRND [Q8T] — within error, 0.015 ± 0.065
- YKPCFVCWDKSSGYHYGVSACEGCKGFFRRSIQKNMIYTCHRDKNCVINKVTRNRCQYCRLQKCFEVGMSKESVRND [Q8W] — within error, -0.083 ± 0.048
- YKPCFVCSDKSSGYHYGVSACEGCKGFFRRSIQKNMIYTCHRDKNCVINKVTRNRCQYCRLQKCFEVGMSKESVRND [Q8S] — within error, 0.064 ± 0.046
- YKPCFVCFDKSSGYHYGVSACEGCKGFFRRSIQKNMIYTCHRDKNCVINKVTRNRCQYCRLQKCFEVGMSKESVRND [Q8F] — within error, -0.092 ± 0.071
- YKPCFVCGDKSSGYHYGVSACEGCKGFFRRSIQKNMIYTCHRDKNCVINKVTRNRCQYCRLQKCFEVGMSKESVRND [Q8G] — within error, 0.044 ± 0.035
- YKPCFVCPDKSSGYHYGVSACEGCKGFFRRSIQKNMIYTCHRDKNCVINKVTRNRCQYCRLQKCFEVGMSKESVRND [Q8P] — lower, -0.813 ± 0.21
- YKPCFVCADKSSGYHYGVSACEGCKGFFRRSIQKNMIYTCHRDKNCVINKVTRNRCQYCRLQKCFEVGMSKESVRND [Q8A] — within error, 0.022 ± 0.045
- YKPCFVCVDKSSGYHYGVSACEGCKGFFRRSIQKNMIYTCHRDKNCVINKVTRNRCQYCRLQKCFEVGMSKESVRND [Q8V] — lower, -0.598 ± 0.073
- YKPCFVCMDKSSGYHYGVSACEGCKGFFRRSIQKNMIYTCHRDKNCVINKVTRNRCQYCRLQKCFEVGMSKESVRND [Q8M] — within error, 0.029 ± 0.052
- YKPCFVCEDKSSGYHYGVSACEGCKGFFRRSIQKNMIYTCHRDKNCVINKVTRNRCQYCRLQKCFEVGMSKESVRND [Q8E] — higher, 0.111 ± 0.045
- YKPCFVCRDKSSGYHYGVSACEGCKGFFRRSIQKNMIYTCHRDKNCVINKVTRNRCQYCRLQKCFEVGMSKESVRND [Q8R] — lower, -0.263 ± 0.043
- YKPCFVCDDKSSGYHYGVSACEGCKGFFRRSIQKNMIYTCHRDKNCVINKVTRNRCQYCRLQKCFEVGMSKESVRND [Q8D] — within error, 0.08 ± 0.057
- YKPCFVCCDKSSGYHYGVSACEGCKGFFRRSIQKNMIYTCHRDKNCVINKVTRNRCQYCRLQKCFEVGMSKESVRND [Q8C] — within error, -0.073 ± 0.071
- YKPCFVCQDCSSGYHYGVSACEGCKGFFRRSIQKNMIYTCHRDKNCVINKVTRNRCQYCRLQKCFEVGMSKESVRND [K10C] — within error, 0.019 ± 0.086
- YKPCFVCQDASSGYHYGVSACEGCKGFFRRSIQKNMIYTCHRDKNCVINKVTRNRCQYCRLQKCFEVGMSKESVRND [K10A] — higher, 0.147 ± 0.05
- YKPCFVCQVKSSGYHYGVSACEGCKGFFRRSIQKNMIYTCHRDKNCVINKVTRNRCQYCRLQKCFEVGMSKESVRND [D9V] — lower, -0.753 ± 0.1
- YKPCFVCQNKSSGYHYGVSACEGCKGFFRRSIQKNMIYTCHRDKNCVINKVTRNRCQYCRLQKCFEVGMSKESVRND [D9N] — lower, -0.828 ± 0.2
- YKPCFVCQPKSSGYHYGVSACEGCKGFFRRSIQKNMIYTCHRDKNCVINKVTRNRCQYCRLQKCFEVGMSKESVRND [D9P] — lower, -1 ± 0.43
- YKPCFVCQEKSSGYHYGVSACEGCKGFFRRSIQKNMIYTCHRDKNCVINKVTRNRCQYCRLQKCFEVGMSKESVRND [D9E] — within error, -0.03 ± 0.046
- YKPCFVCQFKSSGYHYGVSACEGCKGFFRRSIQKNMIYTCHRDKNCVINKVTRNRCQYCRLQKCFEVGMSKESVRND [D9F] — lower, -0.65 ± 0.21
- YKPCFVCQAKSSGYHYGVSACEGCKGFFRRSIQKNMIYTCHRDKNCVINKVTRNRCQYCRLQKCFEVGMSKESVRND [D9A] — lower, -0.465 ± 0.083
- YKPCFVCQYKSSGYHYGVSACEGCKGFFRRSIQKNMIYTCHRDKNCVINKVTRNRCQYCRLQKCFEVGMSKESVRND [D9Y] — lower, -0.57 ± 0.14
- YKPCFVCQTKSSGYHYGVSACEGCKGFFRRSIQKNMIYTCHRDKNCVINKVTRNRCQYCRLQKCFEVGMSKESVRND [D9T] — lower, -1.01 ± 0.24
- YKPCFVCQRKSSGYHYGVSACEGCKGFFRRSIQKNMIYTCHRDKNCVINKVTRNRCQYCRLQKCFEVGMSKESVRND [D9R] — lower, -0.631 ± 0.075
- YKPCFVCQWKSSGYHYGVSACEGCKGFFRRSIQKNMIYTCHRDKNCVINKVTRNRCQYCRLQKCFEVGMSKESVRND [D9W] — lower, -0.529 ± 0.083
- YKPCFVCQQKSSGYHYGVSACEGCKGFFRRSIQKNMIYTCHRDKNCVINKVTRNRCQYCRLQKCFEVGMSKESVRND [D9Q] — lower, -0.6 ± 0.15
- YKPCFVCQSKSSGYHYGVSACEGCKGFFRRSIQKNMIYTCHRDKNCVINKVTRNRCQYCRLQKCFEVGMSKESVRND [D9S] — lower, -0.71 ± 0.11
- YKPCFVCQMKSSGYHYGVSACEGCKGFFRRSIQKNMIYTCHRDKNCVINKVTRNRCQYCRLQKCFEVGMSKESVRND [D9M] — lower, -0.457 ± 0.095
- YKPCFVCQCKSSGYHYGVSACEGCKGFFRRSIQKNMIYTCHRDKNCVINKVTRNRCQYCRLQKCFEVGMSKESVRND [D9C] — lower, -0.525 ± 0.14
- YKPCFVCQGKSSGYHYGVSACEGCKGFFRRSIQKNMIYTCHRDKNCVINKVTRNRCQYCRLQKCFEVGMSKESVRND [D9G] — lower, -0.588 ± 0.062
- YKPCFVCQIKSSGYHYGVSACEGCKGFFRRSIQKNMIYTCHRDKNCVINKVTRNRCQYCRLQKCFEVGMSKESVRND [D9I] — lower, -0.726 ± 0.24
- YKPCFVCQHKSSGYHYGVSACEGCKGFFRRSIQKNMIYTCHRDKNCVINKVTRNRCQYCRLQKCFEVGMSKESVRND [D9H] — lower, -0.543 ± 0.18
- YKPCFVCQKKSSGYHYGVSACEGCKGFFRRSIQKNMIYTCHRDKNCVINKVTRNRCQYCRLQKCFEVGMSKESVRND [D9K] — lower, -0.722 ± 0.17
